Data taken from US8604172B2, “Humanized antibody compositions and methods for binding lysophosphatidic acid” (Lpath, Inc., priority 2009, dated 2013).
Marks after values point to notes of the source that are not given here.

Experiments:
[1] = Competition ELISA (18:1 LPA coat), competitor 14:0 LPA; conditions: maximum inhibition (% of binding in the absence of inhibitor)
Method: (§1) Many isoforms of LPA have been identified to be biologically active and it is preferable that the mAb recognize all of them to some extent to be of therapeutic relevance. The specificity of the anti-LPA mAbs was evaluated utilizing a competition assay in which the competitor lipid was added to the antibody-immobilized lipid mixture.
(§2) Competition ELISA assays were performed with the anti-LPA mAbs to assess their specificity. 18:1 LPA was captured on ELISA plates. Each competitor lipid (up to 10 uM) was serially diluted in BSA (1 mg/ml)-PBS and then incubated with the mAbs (3 nM). Mixtures were then transferred to LPA coated wells and the amount of bound antibody was measured with a secondary antibody. Data are normalized to maximum signal (A450) and are expressed as percent inhibition. Assays were performed in triplicate. IC50: Half maximum inhibition concentration; MI: Maximum inhibition (% of binding in the absence of inhibitor); - - -: not estimated because of weak inhibition. A high inhibition result indicates recognition of the competitor lipid by the antibody.

[2] = Competition ELISA (18:1 LPA coat), competitor 18:1 LPA; format: binding; conditions: maximum inhibition
Method: as §1, §2

[3] = Competition ELISA specificity, competitor LPC; format: binding; conditions: maximum inhibition, n = 3
Method: (§3) The specificity of the anti-LPA mAbs was assessed for their binding to LPA related biolipids such as distearoyl-phosphatidic acid, lysophosphatidylcholine, S1P, ceramide and ceramide-1-phosphate.

[4] = Competition ELISA specificity, competitor DSPA; format: binding; conditions: maximum inhibition, n = 3
Method: as §3

[5] = Specificity of LT3000 against other lipids and proteins; format: binding; conditions: over 100 lipids and proteins incl. over 20 bioactive lipids
From the text: The murine antibody is a full-length IgG1k isotype antibody composed of two identical light chains and two identical heavy chains with a total molecular weight of 155.5 kDa.

Thermostability (Tm) = format: physicochemical
Method: The thermostability of the humanized antibodies were studied by measuring their LPA-binding affinity (EC50) after heating using the direct binding ELISA. Antibodies dissolved in PBS (Cellgo, Cat. No 021-040) were diluted to 25 ug/ml and incubated at 60° C., 65° C., 70° C., 75° C. and 80° C. for 10 min. Prior to increasing the temperature, 10 ul of each sample was removed and diluted with 90 ul of PBS and stored on ice. The samples were then vortexed briefly and the insoluble material was removed by centrifugation for 1 min at 13,000 rpm. The binding activity of the supernatant was determined using the direct LPA-binding ELISA and compared to a control, which consisted of the same sample without heat treatment.

SKOV3 cell migration = test: SKOV3 migration assay; format: cell-based, human; conditions: Lpathomab 150 μg/mL; 1 μM 18:1 LPA; n = 3
SKOV3 cell invasion = test: SKOV3 invasion assay; format: cell-based, human; conditions: Lpathomab (15 mg/mL); 2 μM 14:0 LPA; n = 2
SKOV3 cells = test: Taxol-induced apoptosis / caspase activity in SKOV3 cells; format: cell-based, human
Method: The ability of LPA to protect ovarian tumor cells against apoptosis when exposed to clinically-relevant levels of the chemotherapeutic agent, paclitaxel (Taxol) was investigated. […] LPA protected SKOV3 cells from Taxol-induced apoptosis. Apoptosis was assayed by measurement of the caspase activity as recommended by the manufacturer (Promega). As anticipated, LPA protected most of the cancer cell lines tested from taxol-induced cell death. […] Moreover, the anti-LPA antibody was able to remove the protection provided by serum. Serum is estimated to contain about 5-20 uM LPA. […] Taxol-induced caspase activation was enhanced by the addition of LT3000 to the culture medium.

[6] = test system: angiogenesis in Caki-1-containing plugs; test: Matrigel Plug assay with Caki-1 cells, CD31 staining; format: in vivo, nude (NCr Nu/Nu) female mice; conditions: 10 mg/kg every 3 days; vs saline; p<0.05
Method: One of the anti-LPA mAbs (B7) was tested for its ability to mitigate angiogenesis in vivo using the Matrigel Plug assay. This assay utilizes Matrigel, a proprietary mixture of tumor remnants including basement membranes derived from murine tumors. When Matrigel, or its derivate growth factor-reduced (GFR) Matrigel, is injected sc into an animal, it solidifies and forms a ‘plug.’ If pro-angiogenic factors are mixed with the matrix prior to placement, the plug will be invaded by vascular endothelial cells which eventually form blood vessels. Matrigel can be prepared either alone or mixed with recombinant growth factors (bFGF, VEGF), or tumor cells and then injected sc in the flanks of 6-week old nude (NCr Nu/Nu) female mice. In this example, Caki-1 (renal carcinoma) cells were introduced inside the Matrigel and are producing sufficient levels of VEGF and/or IL8 and LPA. Matrigel plugs were prepared containing 5×10^5 Caki-1 cells from mice treated with saline or with 10 mg/kg of anti-LPA mAb-B7, every 3 days starting 1 day prior to Matrigel implantation. Plugs were stained for endothelial CD31, followed by quantitation of the micro-vasculature formed in the plugs. Quantitation data were means+/−SEM of at least 16 fields/section from 3 plugs.

B16-F10 murine melanoma = B16-F10 murine melanoma experimental lung metastasis; parameters: species or system C57BL/6 mice; conditions: mouse, in vivo
Method: Study: The highly metastatic murine melanoma (B16-F10) was used to examine the therapeutic effect of anti-LPA mAbs on metastasis in vivo. […] 4 week old female (C57BL/6) mice received an injection of B16-F10 murine melanoma tumor cells (100 uL of 5×10^4 cells/animal) via the tail vein. Mice (10 per group) were administered 25 mg/kg of the anti-LPA mAb (either B3 or B7) or saline every three days by i.p. injection. After 18 days, lungs were harvested and analyzed. The pulmonary organs are the preferred metastatic site of the melanoma cells, and were therefore closely evaluated for metastatic nodules. The lungs were inflated with 10% buffered formalin via the trachea, in order to inflate and fix simultaneously, so that even small foci could be detectable on histological examination. Lungs were separated into five lobes and tumors were categorized by dimension (large >5 mm; medium 1-4 mm; small <1 mm) and counted under a dissecting microscope. […] For animals treated with mAb B3, large tumors were reduced by 21%, medium tumors by 17% and small tumors by 22%. Statistical analysis by student's T-test gave a p<0.05 for number of small tumors in animals treated with mAb B3 vs saline.

neovascularization = test: Classical angiogenesis models; format: in vivo; conditions: two classical angiogenesis models

binding affinity for other bioactive lipids and proteins [5]: no binding affinity
B1: LT3000: Murine anti-LPA monoclonal antibody clone B7, IgG1k, renamed Lpathomab, also known as LT3000; hybridoma 504B7.1, ATCC PTA-8420 (antibody, V domains shown)
VH: QVQLQQSGAELVRPGTSVKVSCKASGYGFINYLIEWIKQRPGQGLEWIGLINPGSDYTNYNENFKGKATLTADKSSSTAYMHLSSLTSEDSAVYFCARRFGYYGSGNYFDYWGQGTTLTVSS
VL: DVVMTQTPLSLPVSLGDQASISCTSGQSLVHINGNTYLHWYLQKPGQSPKLLIYKVSNLFSGVPDRFSGSGSGTDFTLKISRVEAEDLGVYFCSQSTHFPFTFGTGTKLEIK
MI, 14:0 LPA [1]: 61.3% | MI, 18:1 LPA [2]: 100% | MI (%), LPC [3]: 0% | MI (%), DSPA [4]: 0% | Tm (Thermostability (Tm); 10 min at 60-80° C., LPA binding by direct ELISA): 67 °C | Apparent Tm (Thermostability (Tm); pH 7.4): 67 °C at pH 7.4 | Migration, % Inhibition (over LPA taken as 100) (SKOV3 cell migration): 35* % | Invasion, % Inhibition (over LPA taken as 100) (SKOV3 cell invasion): 95* % | LPA protection from death induced by chemotherapeutic agent (Taxol) (SKOV3 cells; LPA responsive cells, 24 h): blocked the ability of LPA to protect cells from death | Apoptosis, % Induction (over LPA + TAXOL taken as 100) (SKOV3 cells; Lpathomab 150 μg/mL, 1 μM Taxol, 1 μM 18:1 LPA, n = 1): 79% | Taxol-induced caspase activation (SKOV3 cells; SKOV3, serum-containing culture medium): enhanced | reduction in angiogenesis [6]: greater than 50% | metastatic spread of B16-F10 cells to lungs (B16-F10 murine melanoma): reduced | neovascularization (neovascularization): inhibited
